Results from CN116284371A (SUZHOU FANGKE BIOTECHNOLOGY CO LTD; SUZHOU INST OF SYSTEMS …, dated 2023).

Target: T1, 重组蛋白MDA5 (MDA5抗原蛋白) (Homo sapiens (Human), UniProt Q9BYX4 1-1025)
T1 construct: Recombinant MDA5 from a synthetic gene in pFastBac1 (EcoRI/XbaI); also called MDA5蛋白
T1 sequence: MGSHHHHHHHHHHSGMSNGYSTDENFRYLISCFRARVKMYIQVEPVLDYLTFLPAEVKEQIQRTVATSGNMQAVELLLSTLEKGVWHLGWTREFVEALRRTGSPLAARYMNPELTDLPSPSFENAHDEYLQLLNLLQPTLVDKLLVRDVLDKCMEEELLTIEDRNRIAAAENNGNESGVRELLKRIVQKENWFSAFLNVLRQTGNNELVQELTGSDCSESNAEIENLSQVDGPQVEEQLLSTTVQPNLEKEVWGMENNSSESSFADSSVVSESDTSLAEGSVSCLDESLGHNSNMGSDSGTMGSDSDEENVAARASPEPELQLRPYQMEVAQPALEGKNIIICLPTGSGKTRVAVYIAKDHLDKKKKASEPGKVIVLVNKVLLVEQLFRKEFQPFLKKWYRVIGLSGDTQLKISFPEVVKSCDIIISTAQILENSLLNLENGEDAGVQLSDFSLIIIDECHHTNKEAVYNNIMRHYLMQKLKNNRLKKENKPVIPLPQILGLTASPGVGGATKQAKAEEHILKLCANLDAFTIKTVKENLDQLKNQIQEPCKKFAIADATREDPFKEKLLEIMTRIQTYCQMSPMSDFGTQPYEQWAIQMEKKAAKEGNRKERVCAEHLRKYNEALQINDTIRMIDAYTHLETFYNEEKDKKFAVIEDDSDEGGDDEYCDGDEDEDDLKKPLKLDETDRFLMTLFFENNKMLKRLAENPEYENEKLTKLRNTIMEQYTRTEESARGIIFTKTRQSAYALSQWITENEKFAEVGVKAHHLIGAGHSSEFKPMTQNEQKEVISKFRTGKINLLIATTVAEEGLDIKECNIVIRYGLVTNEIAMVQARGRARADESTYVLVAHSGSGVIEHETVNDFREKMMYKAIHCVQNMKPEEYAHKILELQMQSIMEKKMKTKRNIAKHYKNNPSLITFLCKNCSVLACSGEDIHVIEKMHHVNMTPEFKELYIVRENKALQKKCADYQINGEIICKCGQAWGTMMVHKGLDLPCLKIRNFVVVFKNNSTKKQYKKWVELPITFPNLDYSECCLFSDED
Assay: ELISA, MDA5 coated 4 ug/mL, antibody dilution series, anti-human IgG-HRP

binding result: binds
B1: 76F-MDA5-R2P1-G5抗体 (antibody, human IgG1, kappa, V domains shown)
VH: QVQLVESGGGVVQPGRSLRLSCAASGFTFSSYAMHWVRQAPGKGLEWVAVISYDGSNKYYADSVKGRFTISRDNSKNTLYLQMNSLRAEDTAVYYCARHRRYAFDIWGQGTTVTVSS
VL: QAVLTQPASVSGSPGQSITISCTGTSSDVGGYNYVSWYQQHPGKAPKLMIYDVSKRPSGVSNRFSGSKSGNTASLTISGLQAEDEADYYCSSYVVSYTWVFGGGTKVTVLR
notes: The printed heavy and light chain entries appear to start with a leader peptide
